The numbers were not newly measured in patent publication US20100247512A1, “Pericellular Collagenase Directs the 3-Dimensional Development of White Adipose Tissue” (The Regents of the University of Michigan, priority 2006, published 2010), which cites them from elsewhere.

The target in one series is MT1-MMP (Homo sapiens, UniProt P50281). The conditions noted are these: Rosenthal, et al., 2005.
The next series has as its system pro-MT1-MMP. The conditions noted are these: Rosenthal, et al., 2005.

The star is where a group is joined. Decanoyl = CCCCCCCCCC(=O)*; CH2Cl = ClC*

Take “TIMP-1: member of the tissue inhibitors of metalloproteinases (TIMPs), a family of natural protein MMP inhibitors”: the “inhibition of MT1-MMP, blocking collagenolysis” value in the series with MT1-MMP is recorded as “poor inhibitor of MT1-MMP”.

Take “deconyl-Arg-Val-Lys-Arg-CMK (Decanoyl-RVKR-CH2Cl)”: the “inhibition of intracellular conversion of pro-MT1-MMP to its active form” value in the series on pro-MT1-MMP was “inhibits the intracellular conversion of pro-MT1-MMP to its active form”.
